Test results from patent US20140107315A1.

Experiments:
[1] = biological target: human immunoglobulin G drug separated from human plasma (Gammagard, Baxter) (human); assay: SPR (Biacore 3000), human IgG immobilized on CM5 chip, ligand as analyte, 25 C, pH 7.4, 1:1 model
[2] = biological target: human IgG (Gamma globulin, Nichiyaku) (human); assay: affinity chromatography, ligand immobilized on HiTrap NHS-activated HP (6.5 mg/mL-gel), 1 mg/mL human IgG at 1.9 mL/min, 5% breakthrough
[3] = biological target: human immunoglobulin G drug separated from human plasma (Gammagard, Baxter) (human); assay: SPR (Biacore) as in Example 3, human IgG immobilized on chip, 1:1 model

Row | Substance | Ka [1] | 5% antibody dBC [2] | Ka [3]
1 | C-K04R/K07E/G29A/K35R/K42R/K49R/K50H/K58G.1d (designed binder) | 2.7e+07 M⁻¹ | – | –
2 | C-K04R/K07R/G29A/K35R/K42R/K49R/K50R/K58G.1d with Ser-Lys added at the C terminal (Brevibacillus, Example 4) (designed binder) | – | 25.7 mg/mL-gel | 2.2e+07 M⁻¹
3 | C-K04R/K07R/G29A/K35R/K42R/K49R/K50R/K58G.1d (from pGEX-2T, Example 2) (designed binder) | 4.8e+07 M⁻¹ | – | –

Other lines, results leading:

Row | Ka [1] | 5% antibody dBC [2] | Ka [3] | Substance
4 | 3.3e+07 M⁻¹ | – | – | C-K04R/K07R/G29A/K35R/K42R/K49Q/K50R/K58G.1d (designed binder)
5 | 1.3e+07 M⁻¹ | – | – | C-K04R/K07D/G29A/K35R/K42R/K49R/K50H/K58G.1d (designed binder)
6 | 1.1e+07 M⁻¹ | – | – | C-K04R/K07E/G29A/K35R/K42R/K49R/K50R/K58G.1d (designed binder)
